Reference: article PMC9154775

Molecular target: hC3nb1-K57-ScFc (llama | bovine)
Test: SPR

A Kd of 3.7 nM was found for human Complement C3 (natural protein) in this work.
